Experimental data: publication PMC10585736 (2023)

B1: Pol30p (PCNA), wild type, of the POL30-0 strain [S. cerevisiae] / Rrm3p-Myc [S. cerevisiae] (parent complex)
chain 1: MLEAKFEEASLFKRIIDGFKDCVQLVNFQCKEDGIIAQAVDDSRVLLVSLEIGVEAFQEYRCDHPVTLGMDLTSLSKILRCGNNTDTLTLIADNTPDSIILLFEDTKKDRIAEYSLKLMDIDADFLKIEELQYDSTLSLPSSEFSKIVRDLSQLSDSINIMITKETIKFVADGDIGSGSVIIKPFVDMEHPETSIKLEMDQPVDLTFGAKYLLDIIKGSSLSDRVGIRLSSEAPALFQFDLKSGFLQFFLAPKFNDEE
chain 2: MFRSHASGNKKQWSKRSSNGSTPAASASGSHAYRQQTLSSFFMGCGKKSAAASKNSTTIIDLESGDEGNRNITAPPRPRLIRNNSSSLFSQSQGSFGDDDPDAEFKKLVDVPRLNSYKKSSRSLSMTSSLHKTASASTTQKTYHFDEDETLREVTSVKSNSRQLSFTSTINIEDSSMKLSTDSERPAKRSKPSMEFQGLKLTVPKKIKPLLRKTVSNMDSMNHRSASSPVVLTMEQERVVNLIVKKRTNVFYTGSAGTGKSVILQTIIRQLSSLYGKESIAITASTGLAAVTIGGSTLHKWSGIGIGNKTIDQLVKKIQSQKDLLAAWRYTKVLIIDEISMVDGNLLDKLEQIARRIRKNDDPFGGIQLVLTGDFFQLPPVAKKDEHNVVKFCFESEMWKRCIQKTILLTKVFRQQDNKLIDILNAIRYGELTVDIAKTIRNLNRDIDYADGIAPTELYATRREVELSNVKKLQSLPGDLYEFKAVDNAPERYQAILDSSLMVEKVVALKEDAQVMMLKNKPDVELVNGSLGKVLFFVTESLVVKMKEIYKIVDDEVVMDMRLVSRVIGNPLLKESKEFRQDLNARPLARLERLKILINYAVKISPHKEKFPYVRWTVGKNKYIHELMVPERFPIDIPRENVGLERTQIPLMLCWALSIHKAQGQTIQRLKVDLRRIFEAGQVYVALSRAVTMDTLQVLNFDPGKIRTNERVKDFYKRLETLK

Variants of: B1
Experiment: co-immunoprecipitation, western blot band quantification; α-Myc IP; parent: 2.1; read off a plot
For chain 1 L126A, chain 1 I128A, the response was ~1.8 pixel density fold over input signal.
